Here are results for nine molecules from publication PMC3690454, “14-3-3 Proteins Interact with a Hybrid Prenyl-Phosphorylation Motif to Inhibit G Proteins” (Cell, 2013).

The target in assay [1] is T1, 14-3-3ζ (Homo sapiens, UniProt P63104).
T1 construct: hexa-His; made in house; host or cells: E. coli BL21(DE3) Star
T1 sequence (P63104 1-245): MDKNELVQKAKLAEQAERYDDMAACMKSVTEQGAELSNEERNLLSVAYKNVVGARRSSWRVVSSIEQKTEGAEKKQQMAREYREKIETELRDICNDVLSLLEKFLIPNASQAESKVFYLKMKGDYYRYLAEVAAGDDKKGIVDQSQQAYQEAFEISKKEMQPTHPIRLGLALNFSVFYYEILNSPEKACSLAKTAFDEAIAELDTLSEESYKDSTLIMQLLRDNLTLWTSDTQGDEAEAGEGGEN
The assay is described as follows: Biolayer interferometry (Octet RED96), immobilised biotinylated peptides, 14-3-3ζ in solution. Format: binding. Conditions: for Kd: kinetic fit, peptide immobilised at 1 μg/ml, 25 mM Tris, 150 mM NaCl, 0.1% Tween-20, association 300 s, dissociation 300 s, NB = no binding; for Kd / koff / kon: typical experiment (n ≥ 3). On the procedure:
Biolayer interferometry was carried out using an Octet RED96 instrument (ForteBio). Biotinylated peptides were immobilized on streptavadin-coated biosensors (ForteBio) at a concentration of 1 μg/ml in BI buffer (25 mM Tris, 150 mM NaCl, 0.1% Tween-20), for 300 s. The immobilization typically reached a response level of 2 nm. Association and dissociation curves were obtained through addition of a dilution series of 14-3-3ζ ([…]) for 300 s followed by dissociation in BI buffer for 300 s using the Octet acquisition software. The binding data were fitted using the Octet analysis software.
On the technique in general: In BLI a coated tip is dipped into the sample, and binding shifts an interference pattern.

Assay [2] addresses T2, hexa-His-tagged 14-3-3ζ (UniProt P63104 1-245).
T2 construct: 14-3-3 protein zeta; expressed and purified essentially as in Kostelecky et al., 2009; eluted as a dimer of ~60 kDa; the ITC methods call it 'the 14-3-3ζ domain'; source: E. coli BL21(DE3) Star, purified (HisTrap, size-exclusion chromatography)
T2 sequence: T1 sequence (P63104 1-245)
Kind of assay: BLI; Octet RED96; biotinylated peptides immobilised on streptavidin-coated biosensors (1 μg/ml, 300 s); dilution series of 14-3-3ζ for 300 s, dissociation 300 s; BI buffer 25 mM Tris, 150 mM NaCl, 0.1% Tween-20; data of a typical experiment (n ≥ 3). Conditions: both partners purified.

Square brackets hold non-standard residues; d marks the D form. Ends that are not written are not given here. Peptide text beside a SMILES is read from it. * marks the point of attachment. Geranylgeranyl = CC(C)=CCC/C(C)=C/CC/C(C)=C/CC/C(C)=C/C*; Biotin = O=C1N[C@H]2[C@H](CS[C@H]2CCCCC(=O)*)N1; pT = C[C@@H](OP(=O)(O)O)[C@H](N)C(=O)O; pS = N[C@@H](COP(=O)(O)O)C(=O)O; X1 = CC(C)=CCC/C(C)=C/C*; Ahx = NCCCCCC(=O)O; Prenyl = CC(C)=CC*

As a reminder, the Kd is the equilibrium constant for the complex coming apart. One may read the koff as the rate constant with which the complex falls apart. A high value points to fast dissociation. Broadly, the kon is the rate constant with which the complex forms. Read a low kon as slow association. With `CC(C)=CCSC[C@H](NC(=O)[C@H](COP(=O)(O)O)NC(=O)[C@H](CCCCN)NC(=O)[C@H](C)NC(=O)[C@H](CCCCN)NC(=O)[C@H](CC(=O)O)NC(=O)[C@H](CCCCN)NC(=O)[C@H](CCCNC(=N)N)NC(=O)[C@H](CC(C)C)NC(=O)[C@H](CC(=O)O)NC(=O)CCCCCNC(=O)CCCC[C@@H]1SC[C@@H]2NC(=O)N[C@@H]21)C(=O)O` [+P+Ipr] ({Biotin-Ahx}-DLRKDKAK[pS]C(Prenyl)-OH), in assay [1], the “fold lower affinity for 14-3-3 compared to Rnd3 peptides with two, three and four isoprenyl groups” value was “approximately 10 fold”; the Kd was determined as 556 nM; the koff amounted to 0.13 s⁻¹; the kon amounted to 240000 M⁻¹ s⁻¹.

Take `CC(C)=CCC/C(C)=C/CC/C(C)=C/CC/C(C)=C/CSC[C@H](NC(=O)[C@H](COP(=O)(O)O)NC(=O)[C@H](CCCCN)NC(=O)[C@H](C)NC(=O)[C@H](CCCCN)NC(=O)[C@H](CC(=O)O)NC(=O)[C@H](CCCCN)NC(=O)[C@H](CCCNC(=N)N)NC(=O)[C@H](CC(C)C)NC(=O)[C@H](CC(=O)O)NC(=O)CCCCCNC(=O)CCCC[C@@H]1SC[C@@H]2NC(=O)N[C@@H]21)C(=O)O` [+P+GG] ({Biotin-Ahx}-DLRKDKAK[pS]C(Geranylgeranyl)-OH): in assay [1], the affinity, expressed as Kd, was 23.2 nM; the koff is 0.021 s⁻¹; the kon amounted to 890000 M⁻¹ s⁻¹.

For the molecule `CC(C)=CCC/C(C)=C/CSC[C@H](NC(=O)[C@H](COP(=O)(O)O)NC(=O)[C@H](CCCCN)NC(=O)[C@H](C)NC(=O)[C@H](CCCCN)NC(=O)[C@H](CC(=O)O)NC(=O)[C@H](CCCCN)NC(=O)[C@H](CCCNC(=N)N)NC(=O)[C@H](CC(C)C)NC(=O)[C@H](CC(=O)O)NC(=O)CCCCCNC(=O)CCCC[C@@H]1SC[C@@H]2NC(=O)N[C@@H]21)C(=O)O` [+P+G] ({Biotin-Ahx}-DLRKDKAK[pS]C(X1)-OH), in assay [1], the affinity, expressed as Kd, was 56.5 nM; the koff was 0.032 s⁻¹; the kon worked out at 570000 M⁻¹ s⁻¹.

As to “Rap1A+P-GG: phosphorylated Rap1A peptide without the geranylgeranyl modification (EKKKPKKK[pS]C; not fully specified (N-terminus); also: biotinylated)”, the “affinity for 14-3-3ζ (in words)” value in assay [1] (Figure 7C) was “micromolar affinity”.

In assay [2], {Biotin-Ahx}-GGDDKKSK[pT]C(Geranylgeranyl) (source: synthetic peptide) showed a Kd of 44.5 nM and a kon of 410000 M⁻¹ s⁻¹.

B1: RPGR C-terminal peptide, phosphorylated and geranylgeranylated (N-Bio-Eahx-TNTERRSKpSC(S-geranylgeranyl)-C) (peptide)
peptide: {Biotin-Ahx}-TNTERRSK[pS]C(Geranylgeranyl)
notes: also called RPRG; source: synthetic peptide
In assay [2], B1 yielded a Kd of 95 nM, a koff of 0.022 s⁻¹ and a kon of 240000 M⁻¹ s⁻¹.

B2: Rap1A C-terminal peptide, phosphorylated and geranylgeranylated (N-Bio-Eahx-EKKKPKKKpSC(S-geranylgeranyl)-C) (peptide)
peptide: {Biotin-Ahx}-EKKKPKKK[pS]C(Geranylgeranyl)
notes: also called Rap1A+P+GG; source: synthetic peptide
In assay [2], B2 registered a Kd of 23.6 nM, a koff of 0.034 s⁻¹ and a kon of 1.4e+06 M⁻¹ s⁻¹.

As to {Biotin-Ahx}-PGKARKKS[pS]C(Geranylgeranyl) (source: synthetic peptide), in assay [2], the Kd stood at 170 nM and the kon was determined as 320000 M⁻¹ s⁻¹.

In assay [2], {Biotin-Ahx}-PTPIKRGR[pS]C(Geranylgeranyl) (source: synthetic peptide) showed a Kd of 868 nM and a kon of 41000 M⁻¹ s⁻¹.
